Measurements: PMC3582384 (Biochemistry, 2013)
Values belong to the molecule of their own block, whether it stands above or below them.

Assays:
RsLOV = RsLOV (Cereibacter sphaeroides, UniProt M1E1F8); assay: X-ray crystallography; type: binding; details: dark state, noncovalent; 1.9 Å
[1] = molecular target: A138Y RsLOV variant (Rhodobacter sphaeroides ATCC 17025); assay: SEC
[2] = molecular target: LOV domain protein of Rhodobacter sphaeroides (RsLOV), wild type (Rhodobacter sphaeroides ATCC 17025); assay: SEC

Molecule: Cc1cc2nc3c(=O)[nH]c(=O)nc-3n(C[C@H](O)[C@H](O)[C@H](O)COP(=O)(O)O)c2cc1C [FMN]
X-ray crystallography (RsLOV): The Val32 side chain does not extend as far into the FMN pocket as Leu

stoichiometry N [1]: 2
Molecule: A138Y RsLOV variant (natural protein)

stoichiometry N [2]: 2
Molecule: LOV domain protein of Rhodobacter sphaeroides (RsLOV), wild type (natural protein)
